In assay [1] the target is T1, biotinylated human 20S proteasome (human, UniProt P60900 1-246; P25787 1-234; P25789 1-261; O14818 1-248; P28066 1-241; P25786 …). Briefly: BLI. On the technique in general: BLI is a label-free optical method that tracks binding on a fibre tip over time.
The target in assay [2] is T1, biotinylated human 20S proteasome. In words: BLI. This is another data set of the same source.

By Kd is commonly meant the free concentration of one partner at which half of the binding sites on the other are occupied at equilibrium, for simple one-to-one binding. As a reminder, the koff is the rate constant with which the complex falls apart. A lower koff goes with slow dissociation.

B1: PA26^YF (other)
chain: PPKRAALIQNLRDSYTETSSFAVIEEWAAGTLQEIEGIAKAAAEAHGVIRNSTYGRAQAEKSPEQLLGVLQRYQDLCHNVYCQAETIRTVIAIRIPEHKEADNLGVAVQHAVLKIIDELEIKTLGSGEKSGSGGAPTPIGMYALREYLSARSTVEDKLLGSVDAESGKTKGGSQSPSLLLELRQIDADFMLKVELATTHLSTMVRAVINAYLLNWKKLIQPRTGNLSYFT
B1 came in with a Kd in assay [1] of 0.22 nM. In assay [2], this molecule had a dissociation rate constant (koff) of 0.00026 s⁻¹.

B2: PA26^E102A-Opt5 (other)
chain: PPKRAALIQNLRDSYTETSSFAVIEEWAAGTLQEIEGIAKAAAEAHGVIRNSTYGRAQAEKSPEQLLGVLQRYQDLCHNVYCQAETIRTVIAIRIPEHKEADNLGVAVQHAVLKIIDELEIKTLGSGEKSGSGGAPTPIGMYALREYLSARSTVEDKLLGSVDAESGKTKGGSQSPSLLLELRQIDADFMLKVELATTHLSTMVRAVINAYLLNWKKLIQPRTGNLSYYT
For B2, the dissociation rate constant (koff) in assay [2] is 0.00016 s⁻¹.

B3: wild-type PA26 (T. brucei) (natural protein)
chain: PPKRAALIQNLRDSYTETSSFAVIEEWAAGTLQEIEGIAKAAAEAHGVIRNSTYGRAQAEKSPEQLLGVLQRYQDLCHNVYCQAETIRTVIAIRIPEHKEEDNLGVAVQHAVLKIIDELEIKTLGSGEKSGSGGAPTPIGMYALREYLSARSTVEDKLLGSVDAESGKTKGGSQSPSLLLELRQIDADFMLKVELATTHLSTMVRAVINAYLLNWKKLIQPRTGSDHMVS
Take B3: the affinity in assay [1], expressed as Kd, was 0.1 nM. In assay [2], this molecule had a dissociation rate constant (koff) of 0.00029 s⁻¹.
